# “Also recorded” adds a separate entry of the source.
# Assays:
# EphA2-Fc = molecular target: T1, EphA2-Fc (Homo sapiens, UniProt P29317); assay: Competitive ELISA: inhibition of labeled EA2 binding to EphA2-Fc; conditions: unlabeled antibody, increasing concentrations; FIG. 1
# T1 construct: consisted of the extracellular domain of human EphA2 linked to human immunoglobulin
# Description: The ability of labeled EA2 monoclonal antibody to bind EphA2-Fc was assayed by competitive ELISA in presence of either unlabeled monoclonal antibodies EA2 or Eph099B-208.261. Ratios of unlabeled to labeled antibody used in the assay are indicated on the x-axis. EA2 is indicated by diamonds and Eph099B-208.261 is indicated by squares.
# Monoclonal antibodies against the extracellular domain of EphA2 were generated using the fusion protein EphA2-Fc. This fusion protein consisted of the extracellular domain of human EphA2 linked to human immunoglobulin to facilitate secretion of the fusion protein.
# Supernatants from bulk culture hybridomas were screened for immunoreactivity against EphA2 (Table 6, column 4) using standard molecular biological techniques (e.g., ELISA immunoassay). Supernatants were further screened for the ability to inhibit an EphA2 monoclonal antibody (EA2; ATCC deposit no. PTA-4380; see co-pending U.S. patent application Ser. No. 10/436,783, entitled “EphA2 Agonistic Monoclonal Antibodies and Methods of Use Thereof' filed May 12, 2003) from binding to EphA2. Briefly, the ability of labeled EA2 to bind EphA2-Fc was assayed by competitive ELISA in presence of either unlabeled EA2 or unlabeled Eph099B-208.261 (FIG. 1). […] Additionally, many of the other antibodies could inhibit EA2 binding to EphA2 as well (Table 6, column 3).
# [1] = test system: malignant MDA-MB-231 tumor cells; assay: Inhibition of colony formation in soft agar; format: cell-based; conditions: MDA-MB-231, single dose 5 μg/ml, 37° C.
# Description: FIG. 5: EphA2 antibodies inhibit malignant tumor cell growth in soft agar. A single dose of 5 μg/ml of Eph099B-208.261 (black bar), EA2 (white bar) purified EphA2 antibodies or a negative control antibody, 1A7 (gray bar) were incubated with malignant MDA-MB-231 tumor cells for the indicated time at 37° C. in soft agar. Results are reported as colonies per high-powered field (HPF).
# (§1) The ability of the antibodies of the invention to inhibit cancer cell formation in soft agar was assayed as described in Zelinski et al. (2001, Cancer Res. 61:2301-6). Briefly, cells were suspended in soft agar for 7 days at 37° C. in the presence of purified antibody or control solution (PBS). Antibodies were administered at the time of suspension in both bottom and top agar solutions. Colony formation was scored microscopically using an Olympus CK-3 inverted phase-contrast microscope outfitted with a 40× objective. Clusters containing at least three cells were scored as a positive.
# [2] = test system: cancer cell colonies already formed in soft agar; assay: Elimination of cancer cell colonies already formed in soft agar; format: cell-based; conditions: antibodies added on third day; data not shown
# Description: as §1
# The ability of the antibodies of the invention to eliminate cancer cell colonies already formed in soft agar was assayed. Assay methods were similar to those described above except that antibodies were not added to the cancer cells until the third day of growth in soft agar.
# [3] = molecular target: T2, EphA2-Ephrin A1-Fc complex (Homo sapiens, UniProt P29317); assay: Binding of biotinylated protein to EphA2-Ephrin A1-Fc complex on microtiter plate; conditions: FIG. 18A
# T2 construct: consisting of the extracellular domain of EphA2 linked to human IgG1 constant region
# T2 sequence (P29317 24-537 limits assumed): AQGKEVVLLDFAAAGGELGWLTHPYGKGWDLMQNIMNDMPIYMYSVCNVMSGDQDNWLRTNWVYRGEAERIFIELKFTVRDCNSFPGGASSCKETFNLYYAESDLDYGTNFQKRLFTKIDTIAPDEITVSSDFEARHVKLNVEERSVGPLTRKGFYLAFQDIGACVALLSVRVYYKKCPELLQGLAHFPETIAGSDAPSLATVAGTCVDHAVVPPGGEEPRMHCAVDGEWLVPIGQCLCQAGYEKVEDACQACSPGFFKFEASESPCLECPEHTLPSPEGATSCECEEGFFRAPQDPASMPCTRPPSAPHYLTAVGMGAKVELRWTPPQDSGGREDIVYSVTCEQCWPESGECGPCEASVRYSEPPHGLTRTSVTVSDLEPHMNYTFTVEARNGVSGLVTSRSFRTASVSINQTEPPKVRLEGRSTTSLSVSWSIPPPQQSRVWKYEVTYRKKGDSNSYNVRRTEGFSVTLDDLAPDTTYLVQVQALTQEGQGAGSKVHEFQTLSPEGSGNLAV
# T2 sequence (P20827 19-182 partner limits assumed): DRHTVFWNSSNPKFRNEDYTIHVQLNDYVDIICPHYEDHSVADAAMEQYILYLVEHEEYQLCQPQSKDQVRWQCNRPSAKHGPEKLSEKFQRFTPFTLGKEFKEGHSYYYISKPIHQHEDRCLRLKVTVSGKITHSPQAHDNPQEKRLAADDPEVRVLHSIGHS
# Description: (§2) FIGS. 18A-18B: EphA2 EA2 epitope is distinct from Eph099B-233.152 epitope and ligand binding site. (A) EphA2-Fc was incubated with and bound to immobilized Ephrin A1-Fc. Labeled Ephrin A1-Fc (black), EA2 (white) or Eph099B-233.152 (grey) was incubated with the EphA2-Ephrin A1-Fc complex and amount of binding was measured. (B) EphA2-Fc was incubated with and bound to immobilized Ephrin A1-Fc. Labeled EA2 was then incubated with the EphA2-Ephrin A1 complex. Unlabeled competitor was incubated with EphA2-Ephrin A1-EA2 complex in the indicated amount. Competitors were Ephrin A1-Fc (black), EA2 (white) or Eph099B-233.152 (grey).
# A microtiter plate was coated with […] Ephrin A1-Fc overnight at 4° C. A fusion protein consisting of the extracellular domain of EphA2 linked to human IgG1 constant region (EphA2-Fc) was incubated with and bound to the immobilized Ephrin A1-Fc. Biotinylated Ephrin A1-Fc, EA2, or Eph099B-233.152 was incubated with the EphA2-Ephrin A1-Fc complex and amount of binding was measured.
# [4] = test system: EphA2 on non-transformed MCF-10A cells; assay: Flow cytometry of EA2 binding, non-transformed cells with or without EGTA; format: cell-based; conditions: 10 μg/ml EA2; 4 mM EGTA 10-15 minutes on ice
# Description: (A, B) Non-transformed MCF-10A cells were labeled with EA2 at 4° C. either before (A) or after (B) treatment with EGTA and prior to fixation and immunolabeling with fluorophore-conjugated anti-mouse IgG. (C, D) Non-transformed MCF-10A (C) or transformed MDA-MB-231 (D) cells were labeled with EA2 either before (middle) or after (top) treatment with EGTA. Control cells were incubated with secondary antibody alone (bottom). The amount of EA2-EphA2 binding was measured using flow cytometry.
# An equivalent experiment was performed using MCF-10A or MDA-MB-231 cells. The amount of EA2 binding to EphA2 was measured using flow cytometry (FIGS. 17C-17D). Cells were either treated by incubation in 4 mM EGTA for 10-15 minutes on ice (top panel) or were not treated with EGTA (middle panel) before incubation with 10 μg/ml EA2. Cells were then fixed with 3% formalin and labeled with fluorophore-labeled donkey anti-mouse IgG. Control cells were incubated only with secondary antibody (fluorophore-labeled donkey anti-mouse IgG) in the absence of primary antibody (EA2) (bottom panel). The samples were then evaluated using flow cytometry (Becton Dickinson FACStar Plus).
# [5] = molecular target: T3, EphA2-Ephrin A1-Fc-EA2 complex (Homo sapiens, UniProt P29317); assay: Displacement of labeled EA2 from EphA2-Ephrin A1-Fc complex by unlabeled competitor; format: binding; conditions: biotinylated EA2 10 μg/ml, 30 min
# T3 construct: consisting of the extracellular domain of EphA2 linked to human IgG1 constant region
# T3 sequence (P29317 24-537 limits assumed): as the sequence (P29317 24-537 limits assumed) above
# T3 sequence (P20827 19-182 partner limits assumed): as the sequence (P20827 19-182 partner limits assumed) above
# Description: as §2
# The EphA2-Ephrin A1-Fc complex was prepared as described above. Biotinylated EA2 (10 μg/ml) was then incubated with the complex for 30 min. Unlabeled competitor was incubated with EphA2-Ephrin A1-Fc-EA2 complex in the indicated amount. Unlabeled EA2 could displace the labeled EA2 at concentrations of 100 ng/ml or greater.
# T1 sequence (P29317 24-537 limits assumed): as the sequence (P29317 24-537 limits assumed) above
Concentration of unlabeled competitor displacing labeled EA2 [5] [ng/mL],Molecule,Competition with labeled EA2 for binding to EphA2-Fc (EphA2-Fc),Colony growth in soft agar [1],Effect on cancer cell colonies already growing in soft agar [2],Amount of binding to EphA2-Ephrin A1-Fc complex [3],"Effect of EGTA treatment on EA2 binding, non-transformed cells [4]"
,"Eph099B-208.261: EphA2 monoclonal antibody; hybridoma ATCC PTA-4573; VL SEQ ID NO:1, VH SEQ ID NO:5 (antibody, listed as Homo sapiens, V domains shown) VH: QVQLQQPGAELVKPGASVKLSCKASGYTFTSYWMHWVKQRPGQGLEWIGMIHPNSGSTNYNEKFKSKATLTVDKSSSTAYMRLSSLTSEDSAVYYCARGGNMVGGGYWGQGTTLTVSS VL: QIVLTQSPALMSASPGEKVTMTCSASSSVSYMYWYQQKPRSSPKPWIYLTTNLASGVPARFSGSGSGTSYSLTISSMEAEDAATYYCQQWSSNPFTFGSGTKLEIR",could decrease the amount of labeled EA2 binding to EphA2-Fc; also recorded: can compete with EA2 for binding to EphA2,inhibited colony growth in soft agar,can slow or reduce cancer cell colony growth in soft agar,,
,"Eph099B-233.152: EphA2 monoclonal antibody; hybridoma ATCC PTA-5194; VL SEQ ID NO:17, VH SEQ ID NO:21 (antibody, listed as Homo sapiens, V domains shown) VH: EVKLVESGGGLVQPGGSLSLSCAASGFTFTDYSMNWVRQPPGKALEWLGFIRNKANDYTTEYSASVKGRFTISRDNSQSILYLQMNALRAEDSATYYCVRYPRYHAMDSWGQGTSVTVSS VL: DIVLTQSPATLSVTPGDSVNLSCRASQSISNNLHWYQQKSHESPRLLIKYVFQSISGIPSRFSGSGSGTDFTLSINSVETEDFGMYFCQQSNSWPLTFGAGTKLELK",,,can slow or reduce cancer cell colony growth in soft agar,considerable levels,
≥ 100,"EA2: EphA2 agonistic monoclonal antibody; ATCC deposit no. PTA-4380; co-pending application Ser. No. 10/436,783; VL SEQ ID NO:33, VH SEQ ID NO:37 (antibody, listed as Homo Sapiens, V domains shown) VH: DVKLVESGGGLVKPGGSLKLSCAASGFTFSSYTMSWVRQTPEKRLEWVATISSGGTYTYYPDSVKGRFTISRDNAKNTLYLQMSSLKSEDTAMYYCTREAIFTYWGQGTLVTVSA VL: DIKMTQSPSSMYASLGERVTITCKASQDINNYLSWFQQKPGKSPKTLIYRANRLVDGVPSRFSGSGSGQDYSLTISSLEYEDMGIYYCLKYDEFPYTFGGGTKLEIK",could decrease the amount of labeled EA2 binding to EphA2-Fc,inhibited colony growth in soft agar,,considerable levels,increased by incubation in EGTA

# Reference: patent US20100278838A1, “EPHA2 MONOCLONAL ANTIBODIES AND METHODS OF USE THEREOF” (MEDIMMUNE, LLC, priority 2002, published 2010)
